± gives the standard error.
Assay: background-corrected fluorescence of 3'-dye-labeled ssDNA relative to brightest sequence (3'-GCGCG) (fraction); higher = brighter dye fluorescence (less quenching)
Settings: dye: Cy3 (3' terminal)
Summary of the method: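 Each of 1024 permuted pentamers was synthesized as single-stranded DNA on glass slides by light-directed phosphoramidite chemistry, with a 3' Cy3 or Cy5 dye alongside. Arrays were scanned at 532 or 635 nm before and after overnight deprotection with ethylenediamine/ethanol. Values average 10 features per array across at least 3 syntheses. The fluorescence readout, with unlabeled-oligo background removed, is given relative to the brightest sequence.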

Sequence | background-corrected fluorescence
TTTTTTGCTGATGATGATGCTTTTTTTTTTTTTTTACCCA | 0.462 ± 0.029
TTTTTTGCTGATGATGCGCATTTTTTTTTTTTTTTACCAT | 0.499 ± 0.026
TTTTTTGCTGATGATGCTCATTTTTTTTTTTTTTTACCAG [GACCA] | 0.516 ± 0.024
TTTTTTGCTGATGATGCTGATTTTTTTTTTTTTTTACCAC [CACCA] | 0.405 ± 0.01
TTTTTTGCTGATGATGCTGCTTTTTTTTTTTTTTTACCAA [AACCA] | 0.485 ± 0.029
TTTTTTGCTGATGCGCAGCATTTTTTTTTTTTTTTACATT | 0.546 ± 0.011
TTTTTTGCTGATGCGCATCATTTTTTTTTTTTTTTACATG [GTACA] | 0.519 ± 0.03
TTTTTTGCTGATGCGCATGATTTTTTTTTTTTTTTACATC [CTACA] | 0.392 ± 0.027
TTTTTTGCTGATGCGCATGCTTTTTTTTTTTTTTTACATA [ATACA] | 0.591 ± 0.025
TTTTTTGCTGATGCTCAGCATTTTTTTTTTTTTTTACAGT [TGACA] | 0.629 ± 0.039
TTTTTTGCTGATGCTCATCATTTTTTTTTTTTTTTACAGG [GGACA] | 0.646 ± 0.034
TTTTTTGCTGATGCTCATGATTTTTTTTTTTTTTTACAGC [CGACA] | 0.508 ± 0.023
TTTTTTGCTGATGCTCATGCTTTTTTTTTTTTTTTACAGA [AGACA] | 0.615 ± 0.02
TTTTTTGCTGATGCTGAGCATTTTTTTTTTTTTTTACACT [TCACA] | 0.51 ± 0.018
TTTTTTGCTGATGCTGATCATTTTTTTTTTTTTTTACACG [GCACA] | 0.504 ± 0.029
TTTTTTGCTGATGCTGATGATTTTTTTTTTTTTTTACACC [CCACA] | 0.369 ± 0.022
TTTTTTGCTGATGCTGATGCTTTTTTTTTTTTTTTACACA | 0.469 ± 0.022
TTTTTTGCTGATGCTGCGCATTTTTTTTTTTTTTTACAAT [TAACA] | 0.525 ± 0.028
TTTTTTGCTGATGCTGCTCATTTTTTTTTTTTTTTACAAG [GAACA] | 0.53 ± 0.015
TTTTTTGCTGATGCTGCTGATTTTTTTTTTTTTTTACAAC [CAACA] | 0.448 ± 0.0078
TTTTTTGCTGATGCTGCTGCTTTTTTTTTTTTTTTACAAA [AAACA] | 0.581 ± 0.022
TTTTTTGCTGCGCAGCAGCATTTTTTTTTTTTTTTAATTT | 0.559 ± 0.029
TTTTTTGCTGCGCAGCATCATTTTTTTTTTTTTTTAATTG [GTTAA] | 0.561 ± 0.03
TTTTTTGCTGCGCAGCATGATTTTTTTTTTTTTTTAATTC [CTTAA] | 0.419 ± 0.015
TTTTTTGCTGCGCAGCATGCTTTTTTTTTTTTTTTAATTA [ATTAA] | 0.564 ± 0.022
TTTTTTGCTGCGCATCAGCATTTTTTTTTTTTTTTAATGT [TGTAA] | 0.616 ± 0.033

Sequence | background-corrected fluorescence
TTTTTTGCTGCGCATCATCATTTTTTTTTTTTTTTAATGG [GGTAA] | 0.645 ± 0.023
TTTTTTGCTGCGCATCATGATTTTTTTTTTTTTTTAATGC [CGTAA] | 0.515 ± 0.016
TTTTTTGCTGCGCATCATGCTTTTTTTTTTTTTTTAATGA [AGTAA] | 0.634 ± 0.032
TTTTTTGCTGCGCATGAGCATTTTTTTTTTTTTTTAATCT [TCTAA] | 0.483 ± 0.036
TTTTTTGCTGCGCATGATCATTTTTTTTTTTTTTTAATCG [GCTAA] | 0.504 ± 0.0074
TTTTTTGCTGCGCATGATGATTTTTTTTTTTTTTTAATCC [CCTAA] | 0.376 ± 0.013
TTTTTTGCTGCGCATGATGCTTTTTTTTTTTTTTTAATCA [ACTAA] | 0.489 ± 0.025
TTTTTTGCTGCGCATGCGCATTTTTTTTTTTTTTTAATAT [TATAA] | 0.54 ± 0.022
TTTTTTGCTGCGCATGCTCATTTTTTTTTTTTTTTAATAG [GATAA] | 0.535 ± 0.0083
TTTTTTGCTGCGCATGCTGATTTTTTTTTTTTTTTAATAC [CATAA] | 0.453 ± 0.011
TTTTTTGCTGCGCATGCTGCTTTTTTTTTTTTTTTAATAA | 0.578 ± 0.031
TTTTTTGCTGCTCAGCAGCATTTTTTTTTTTTTTTAAGTT [TTGAA] | 0.609 ± 0.021
TTTTTTGCTGCTCAGCATCATTTTTTTTTTTTTTTAAGTG [GTGAA] | 0.587 ± 0.027
TTTTTTGCTGCTCAGCATGATTTTTTTTTTTTTTTAAGTC [CTGAA] | 0.438 ± 0.029
TTTTTTGCTGCTCAGCATGCTTTTTTTTTTTTTTTAAGTA [ATGAA] | 0.591 ± 0.019
TTTTTTGCTGCTCATCAGCATTTTTTTTTTTTTTTAAGGT [TGGAA] | 0.658 ± 0.016
TTTTTTGCTGCTCATCATCATTTTTTTTTTTTTTTAAGGG [GGGAA] | 0.649 ± 0.021
TTTTTTGCTGCTCATCATGATTTTTTTTTTTTTTTAAGGC [CGGAA] | 0.6269 ± 0.0056
TTTTTTGCTGCTCATCATGCTTTTTTTTTTTTTTTAAGGA [AGGAA] | 0.779 ± 0.02
TTTTTTGCTGCTCATGAGCATTTTTTTTTTTTTTTAAGCT [TCGAA] | 0.56 ± 0.028
TTTTTTGCTGCTCATGATCATTTTTTTTTTTTTTTAAGCG [GCGAA] | 0.632 ± 0.033
TTTTTTGCTGCTCATGATGATTTTTTTTTTTTTTTAAGCC [CCGAA] | 0.443 ± 0.01
TTTTTTGCTGCTCATGATGCTTTTTTTTTTTTTTTAAGCA [ACGAA] | 0.571 ± 0.014
TTTTTTGCTGCTCATGCGCATTTTTTTTTTTTTTTAAGAT [TAGAA] | 0.564 ± 0.024
TTTTTTGCTGCTCATGCTCATTTTTTTTTTTTTTTAAGAG [GAGAA] | 0.607 ± 0.036
